Results reported in US20230303681A1.

These substances were tested against mouse TMEM106B (mouse) (UniProt Q80X71) (assay: FACS Neuro2a).

Substance	MFI
Negative ctrl #1 (antibody)	220
Negative ctrl #2 (antibody)	235
Negative ctrl #3 (antibody)	216
